Measured values taken from the supplement of paper PMC7125110.
± gives the standard error. For part of these data: This sample holds only a part of the variants without activity.

B1: glmS ribozyme (parent)
chain: AUAAAAGCGCCAGAACUACAGAAAUGUAGUUGACGAGGAGGAGGUUUAUCGAAUUUUCGGCGGAUGCCUCCAAA

Legend:
Settings in all cases: with glucosamine-6-phosphate
[1] = variants of: B1; test: kcat; higher = faster cleavage; RNA array
Method in brief: (§1)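 kobs was derived by fitting per-tile medians to one- or two-exponential decays after normalising signals to baseline and to non-cleaving reference variants. Those signals came from barcoded ribozyme variants transcribed in situ by E. coli RNA polymerase on sequenced MiSeq chips, followed through a hybridised Cy3 probe at 37 °C and imaged over ~14 h. Glucosamine-6-phosphate (40 μM to 10 mM) in HEPES/KCl/Mg(OAc)2 buffer was flowed in. Weighted Michaelis–Menten fits across concentrations then gave kcat and KM.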

[2] = variants of: B1; test: KM; higher = weaker cofactor use; RNA array
Method in brief: as §1

[3] = variants of: B1; test: self-cleavage kobs at 40 uM GlcN6P; higher = faster cleavage; RNA array
Method in brief: as §1

[4] = variants of: B1; test: self-cleavage kobs at 160 uM GlcN6P; higher = faster cleavage; RNA array
Method in brief: as §1

[5] = variants of: B1; test: self-cleavage kobs at 640 uM GlcN6P; higher = faster cleavage; RNA array
Method in brief: as §1

[6] = variants of: B1; test: self-cleavage kobs at 2500 uM GlcN6P; higher = faster cleavage; RNA array
Method in brief: as §1

[7] = variants of: B1; test: self-cleavage kobs at 10000 uM GlcN6P; higher = faster cleavage; RNA array
Method in brief: as §1

| Variant | kcat [1] | KM [2] | self-cleavage kobs at 40 uM GlcN6P [3] | self-cleavage kobs at 160 uM GlcN6P [4] | self-cleavage kobs at 640 uM GlcN6P [5] | self-cleavage kobs at 2500 uM GlcN6P [6] | self-cleavage kobs at 10000 uM GlcN6P [7] |
| --- | --- | --- | --- | --- | --- | --- | --- |
| AUAAAAGCGCCAGAACUACAGAAAUGUAGUGGACGAGGAGGAGGUUAAUCGAAUUUUCGGCGGAUGCCUCCAAA | 0.00848 ± 0.0027 s⁻¹ | 2290 ± 990 µM | 0.000201 ± 2.8e-05 s⁻¹ | 0.000474 ± 7e-05 s⁻¹ | 0.00211 ± 0.00035 s⁻¹ | 0.00332 ± 0.00063 s⁻¹ | 0.00821 ± 0.0011 s⁻¹ |
| AUAAAAGCGCCAGAACUACAGAAAUGUAGUGGACGAGGAGGAGGUUUAUCGAAUUUUCGGCGGAUGUCUCCAAA | 0.00291 ± 0.00094 s⁻¹ | 1040 ± 460 µM | 0.000124 ± 9.4e-06 s⁻¹ | 0.000329 ± 6.4e-05 s⁻¹ | 0.00082 ± 0.00012 s⁻¹ | 0.00179 ± 0.00027 s⁻¹ | 0.00391 ± 0.00047 s⁻¹ |
| AUAAAAGCGCCAGAACUACAGAAAUGUAGUGGACGAGGAGGAGGUUUAUCGAAUUUUCGGCGGAUGACUCCAAA | 0.00185 ± 0.00043 s⁻¹ | 740 ± 270 µM | 0.000107 ± 1.8e-05 s⁻¹ | 0.000285 ± 6.9e-05 s⁻¹ | 0.000858 ± 0.00013 s⁻¹ | 0.00123 ± 0.00024 s⁻¹ | 0.00286 ± 0.00065 s⁻¹ |
| AUAAAAGCGCCAGAACUACAGAAAUGUAGUGGACGAGGAGGAGGUUUAUCGAAUUUUCGGCUGAUGCCUCGAAA | < 1e-05 s⁻¹ | – | – | – | – | – | – |
| AUAAAAGCGCCAGAACUACAGAAAUGUAGUGGACGAGGAGGAGGAUUAUCGAAUUUUCGGCGGAUGCCUCCAAA | 0.0285 ± 0.0073 s⁻¹ | 2180 ± 720 µM | 0.000531 ± 0.00011 s⁻¹ | 0.00206 ± 0.0004 s⁻¹ | 0.00653 ± 0.0013 s⁻¹ | 0.0105 ± 0.0037 s⁻¹ | 0.0291 ± 0.0063 s⁻¹ |
| AUAAAAGCGCCAGAACUACAGAAAUGUAGUGCACGAGGAGGAGGUUUAUCGAAUUUUCGGCGGAUGCCUCCAAA | 0.000616 ± 8.5e-05 s⁻¹ | 5520 ± 1100 µM | – | – | 6.65e-05 ± 1.1e-05 s⁻¹ | 0.000186 ± 2.9e-05 s⁻¹ | 0.000405 ± 8.2e-05 s⁻¹ |
| AUAAAAGCGCCAGAACUACAGAAAUGUAGUGGACGAGGAGGAGGUUUACCGAAAUUUCGGCGCAUGCGGCCAAA | 2.53e-05 ± 5.9e-06 s⁻¹ | – | < 1e-05 s⁻¹ | – | – | – | – |
| AUAAAAGCGCCAGAACUACAGAAAUGUAGUGGAAGAGGAGGAGGUUUAUCGAAUUUUCGUCGGAUGACUCCAAA | < 1e-05 s⁻¹ | – | – | – | – | – | – |
| AUAAAAGCGCCAGAACUACAGAAAUGUAGUGGACGAGGAGCAGGUUUAUCGAAUUUUCGGCGGAUGCCUCCAAA | 0.000172 ± 3.9e-05 s⁻¹ | – | – | – | – | 0.000167 ± 3.6e-05 s⁻¹ | 0.000139 ± 2.2e-05 s⁻¹ |
| AUAAAAGCGCCAGAACUACAGAAAUGUAGUGGACGAGGAGGAGGUUUAUCGAAUUUUCGGCGGAUCCCUCCAAA | 0.000137 ± 2.5e-05 s⁻¹ | 1360 ± 590 µM | – | – | 4.89e-05 ± 1.1e-05 s⁻¹ | 7.89e-05 ± 1.3e-05 s⁻¹ | 0.000146 ± 3.1e-05 s⁻¹ |
| AUAAAAGCGCCAGAACUACAGAAAUGUAGUGGACGAGGAUGAGGUUUAUCGAAUUUUCGGCGGAUGCCUCCAAA | 0.00241 ± 0.0003 s⁻¹ | 2730 ± 500 µM | 3.85e-05 ± 7.6e-06 s⁻¹ | 0.000115 ± 1.6e-05 s⁻¹ | 0.000515 ± 5.8e-05 s⁻¹ | 0.00119 ± 0.00013 s⁻¹ | 0.00183 ± 0.0002 s⁻¹ |
| AUAAAAGCGCCAGAACUACAGAAAUGUAGUGGACGAGGAAGAGGUUUAUCGAAUUUUCGGCGGAUGCCUCCAAA | 0.00279 ± 0.00072 s⁻¹ | 1460 ± 560 µM | 0.00011 ± 2.4e-05 s⁻¹ | 0.000269 ± 5.2e-05 s⁻¹ | 0.000715 ± 0.00014 s⁻¹ | 0.0018 ± 0.00027 s⁻¹ | 0.00301 ± 0.00099 s⁻¹ |
| AUAAAAGCGCCAGAACUACAGAAAUGUAGUGGACGAUGAGGAGGUUUAUCGAAUUUUCGGCGGAUGCCUCCAAA | < 1e-05 s⁻¹ | – | – | – | – | – | – |
| AUAAAAGCGCCAGAACUACAGAAAUGUAGUGGACGAGGAGGAGGUUUAUCGAAUUUUAGGCGGAUGCCUCCAAA | 0.000195 ± 2.1e-05 s⁻¹ | 2240 ± 600 µM | – | – | 5.23e-05 ± 1.2e-05 s⁻¹ | 9.47e-05 ± 1.4e-05 s⁻¹ | 0.000163 ± 1.7e-05 s⁻¹ |
| AUAAAAGCGCCAGAACUACAGAAAUGUAGUGGACGAGGAGGAGGUAUAUCGAAUUUUCGGCGGAUGCCUCCAAA | 0.000771 ± 0.00021 s⁻¹ | – | – | 0.000124 ± 3.6e-05 s⁻¹ | 0.000258 ± 6.7e-05 s⁻¹ | 0.000954 ± 0.00016 s⁻¹ | 0.000614 ± 0.0001 s⁻¹ |
| AUAAAAGCGCCAGAACUACAGAAAUGUAGUGGACGAGGAGGAGGUUUAGCGAAUUUUCGGCGGAUGCCUCCAAA | 0.000191 ± 2.6e-06 s⁻¹ | 2140 ± 89 µM | – | – | 4.38e-05 ± 1.9e-05 s⁻¹ | 0.000102 ± 1.4e-05 s⁻¹ | 0.000157 ± 1.4e-05 s⁻¹ |
| AUAAAAGCGCCAGAACUACAGAAAUGUAGUGGACGAGGAGGAGGUUUAUUGAAUUUUCGGCGGAUGCCUCCAAA | 2.22e-05 ± 1.4e-06 s⁻¹ | – | < 1e-05 s⁻¹ | – | – | – | – |
| AUAAAAGCGCCAGAACUACAGAAAUGUAGUGGACGAGUAGGAGGUUUAUCGAAUUUUCGGCGGAUGCCUCCAAA | < 1e-05 s⁻¹ | – | – | – | – | – | – |
